From the supplement of paper PMC7877785 come the findings set out here.

The data set in a line: self-splicing fitness, log relative to wild type (ln ratio); higher = more splicing; Tetrahymena group I intron in knt gene, E. coli kanamycin selection, DiMSum; sequences stand for … in CUCUCU…GGAGGGAAAAGUUAUCAGGCAUGCACCUGGUAGCUAGUCUUUAAACCAAUAGAUUGCAUCGGUUUAAAAGGCAAGACCGUCAAAUUGCGGGAAAGGGGUCAACAGCCGUUCAGUACCAAGUCUCAGGGGAAACUUUGAGAUGGCCUUGCAAAGGGUAUGGUAAUAAGCUGACGGACAUGGUCCUAACCACGCAGCCAAGUCCUAAGUCAACAGAUCUUCUGUUGAUAUGGAUGCAGUUCACAGACUAAAUGUCGGUCGGGGAAGAUGUAUUCUUCUCAUAAGAUAUAGUCGGACCUCUCCUUAAUGGGAGCUAGCGGAUGAAGUGAUGCAACACUGGAGCCGCUGGGAACUAAUUUGUAUGCGAAAGUAUAUUGAUUAGUUUUGGAGUACUCGUGGUCG
The essentials: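 DiMSum derived fitness as the error-weighted combination of fold changes across replicates, kanamycin versus no kanamycin, normalised to wild type. E. coli BL21(DE3) held the library, which randomised all eight P1ex-region intron nucleotides within the knt kanamycin-resistance gene on pET-22b(+). Six replicate transformations grew overnight at 37°C or 30°C on LB agar with or without 25 μg/mL kanamycin, also containing 100 μg/mL carbenicillin, 50 μM IPTG and 0.2% rhamnose, and pooled colonies were amplicon-sequenced on an Illumina HiSeq 2500.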

± gives the uncertainty stated by the source.

As for CUGUAGCAAUAUUACGUUAG, the “self-splicing fitness (ln)” value (30 °C) is -2.72 ± 0.11 and the “self-splicing fitness (ln)” value (37 °C) is -1.77 ± 0.11.
Regarding CUGUAGCAAUAUUACGUUCA, the “self-splicing fitness (ln)” value runs as follows: (30 °C) -3.47 ± 0.24; (37 °C) -1.45 ± 0.15.
Take CUGUAGCAAUAUUACGUUUA: the “self-splicing fitness (ln)” value runs as follows: (30 °C) -3.7 ± 0.32; (37 °C) -2.51 ± 0.16.
Take CUUAAGCAAUAUUACGAACU: for the setting “37 °C”, the “self-splicing fitness (ln)” value was -2.61 ± 0.38.
For the sequence CUUAAGCAAUAUUACGAAUG, the “self-splicing fitness (ln)” value is, setting by setting: (30 °C) -0.541 ± 0.092; (37 °C) -0.0976 ± 0.12.
On the same counts, the results for CUUAAGCAAUAUUACGAAUU are -3.26 ± 0.22 and -0.957 ± 0.17.
On the same counts, the results for CUUAAGCAAUAUUACGACCA are -3.3 ± 0.4 and -2.04 ± 0.4.
For CUUAAGCAAUAUUACGACUG, the “self-splicing fitness (ln)” value reads like this: (30 °C) 0.139 ± 0.087; (37 °C) -0.589 ± 0.13.
Take CUUAAGCAAUAUUACGAGCC: the “self-splicing fitness (ln)” value (37 °C) was -3.51 ± 0.48.
As to CUUAAGCAAUAUUACGAUAA, the “self-splicing fitness (ln)” value (37 °C) was -3.18 ± 0.35.
As for CUUAAGCAAUAUUACGAUUC, the “self-splicing fitness (ln)” value is -4.19 ± 0.46 (30 °C) and -2.07 ± 0.26 (37 °C).
On the same counts, the results for CUUAAGCAAUAUUACGCCGU are -3.13 ± 0.34 and -1.88 ± 0.37.
Take CUUAAGCAAUAUUACGCGAA: the “self-splicing fitness (ln)” value (30 °C) was -2.82 ± 0.24 and the “self-splicing fitness (ln)” value (37 °C) was -2.82 ± 0.34.
The corresponding values for CUUAAGCAAUAUUACGCGCU are -3.35 ± 0.22 and -2.5 ± 0.27.
With CUUAAGCAAUAUUACGCGGU, the “self-splicing fitness (ln)” value runs as follows: (30 °C) -2.59 ± 0.14; (37 °C) -2.35 ± 0.22.
Regarding CUUAAGCAAUAUUACGGAUC, the “self-splicing fitness (ln)” value was -1.71 ± 0.23 (30 °C) and -2.11 ± 0.44 (37 °C).
On the same counts, the results for CUUAAGCAAUAUUACGGCGG are -1.25 ± 0.095 and -0.194 ± 0.083.
As to CUUAAGCAAUAUUACGGGAA, the “self-splicing fitness (ln)” value by setting is: (30 °C) -2.9 ± 0.3; (37 °C) -2.85 ± 0.32.
Take CUUAAGCAAUAUUACGGGCU: the “self-splicing fitness (ln)” value reads like this: (30 °C) -3.84 ± 0.23; (37 °C) -2.98 ± 0.25.
For CUUAAGCAAUAUUACGGGGA, the “self-splicing fitness (ln)” value was -3.46 ± 0.29 (30 °C) and -2.16 ± 0.18 (37 °C).
On the same counts, the results for CUUAAGCAAUAUUACGGGUC are -4.47 ± 0.34 and -2.98 ± 0.23.
On the same counts, the results for CUUAAGCAAUAUUACGUAGG are -2.58 ± 0.1 and -1.35 ± 0.14.
On the same counts, the results for CUUAAGCAAUAUUACGUCGG are -1.66 ± 0.097 and -0.424 ± 0.11.
In the case of CUUAAGCAAUAUUACGUGGG, the “self-splicing fitness (ln)” value is -4.03 ± 0.17 (30 °C) and -2.26 ± 0.12 (37 °C).
For the sequence CUUAAGCAAUAUUACGUUCU, the “self-splicing fitness (ln)” value (30 °C) is -2.91 ± 0.19 and the “self-splicing fitness (ln)” value (37 °C) was -2.14 ± 0.21.
For the sequence CUUCAGCAAUAUUACGAAAC, for the setting “30 °C”, the “self-splicing fitness (ln)” value was -0.955 ± 0.5.
With CUUCAGCAAUAUUACGAAGU, the “self-splicing fitness (ln)” value reads like this: (30 °C) -2.31 ± 0.17; (37 °C) -2.66 ± 0.38.
Take CUUCAGCAAUAUUACGAAUU: the “self-splicing fitness (ln)” value is, setting by setting: (30 °C) -2.66 ± 0.19; (37 °C) -0.66 ± 0.13.
The corresponding values for CUUCAGCAAUAUUACGACCG are 0.185 ± 0.083 and -0.454 ± 0.12.
On to CUUCAGCAAUAUUACGAGAA, for which the “self-splicing fitness (ln)” value (37 °C) is -0.0336 ± 0.41.
For the sequence CUUCAGCAAUAUUACGAGAG, the “self-splicing fitness (ln)” value is, setting by setting: (30 °C) -2.81 ± 0.12; (37 °C) -1.79 ± 0.14.
Take CUUCAGCAAUAUUACGAGUA: the “self-splicing fitness (ln)” value (30 °C) is -1.21 ± 0.4.
For CUUCAGCAAUAUUACGCCGC, the “self-splicing fitness (ln)” value is, setting by setting: (30 °C) -3.14 ± 0.37; (37 °C) -2.43 ± 0.35.
The corresponding values for CUUCAGCAAUAUUACGCUUG are -2.94 ± 0.14 and -1.22 ± 0.12.
On to CUUCAGCAAUAUUACGCUUU, for which, for the setting “37 °C”, the “self-splicing fitness (ln)” value was -2.85 ± 0.31.
For CUUCAGCAAUAUUACGGGUA, the “self-splicing fitness (ln)” value by setting is: (30 °C) -3.12 ± 0.22; (37 °C) -3.74 ± 0.28.
As for CUUCAGCAAUAUUACGUAGG, the “self-splicing fitness (ln)” value was -1.49 ± 0.1 (30 °C) and -0.863 ± 0.12 (37 °C).
Turning to CUUCAGCAAUAUUACGUGCG, the “self-splicing fitness (ln)” value is -2.43 ± 0.09 (30 °C) and -0.814 ± 0.099 (37 °C).
The corresponding values for CUUCAGCAAUAUUACGUUCC are -2.64 ± 0.43 and -1.71 ± 0.36.
For the sequence CUUCAGCAAUAUUACGUUCG, the “self-splicing fitness (ln)” value reads like this: (30 °C) -0.922 ± 0.067; (37 °C) -0.372 ± 0.092.
On to CUUCAGCAAUAUUACGUUUA, for which the “self-splicing fitness (ln)” value is -3.96 ± 0.3 (30 °C) and -2.49 ± 0.23 (37 °C).
CUUCAGCAAUAUUACGUUUC: the “self-splicing fitness (ln)” value is, setting by setting: (30 °C) -2.93 ± 0.17; (37 °C) -2.17 ± 0.2.
As for CUUGAGCAAUAUUACGACAC, the “self-splicing fitness (ln)” value (37 °C) was -3.08 ± 0.47.
As to CUUGAGCAAUAUUACGACUC, the “self-splicing fitness (ln)” value (37 °C) was -1.67 ± 0.42.
For the sequence CUUGAGCAAUAUUACGAGUU, the “self-splicing fitness (ln)” value was -4.15 ± 0.23 (30 °C) and -2.33 ± 0.17 (37 °C).
As to CUUGAGCAAUAUUACGCCAU, the “self-splicing fitness (ln)” value was -2.92 ± 0.22 (30 °C) and -3.8 ± 0.46 (37 °C).
CUUGAGCAAUAUUACGCCGC: for the setting “30 °C”, the “self-splicing fitness (ln)” value was -1.08 ± 0.47.
Consider CUUGAGCAAUAUUACGCCUU, for which the “self-splicing fitness (ln)” value (37 °C) was -2.47 ± 0.37.
For CUUGAGCAAUAUUACGCGAA, the “self-splicing fitness (ln)” value (30 °C) is -3.53 ± 0.4.
CUUGAGCAAUAUUACGCGAG: the “self-splicing fitness (ln)” value (30 °C) was -3.64 ± 0.16 and the “self-splicing fitness (ln)” value (37 °C) was -2.82 ± 0.23.
With CUUGAGCAAUAUUACGGGAC, the “self-splicing fitness (ln)” value is, setting by setting: (30 °C) -3.63 ± 0.29; (37 °C) -2.56 ± 0.3.
The corresponding values for CUUGAGCAAUAUUACGGGUC are -3.49 ± 0.19 and -2.97 ± 0.25.
Consider CUUGAGCAAUAUUACGGUUU, for which the “self-splicing fitness (ln)” value runs as follows: (30 °C) -2.68 ± 0.16; (37 °C) -2.66 ± 0.29.
On the same counts, the results for CUUGAGCAAUAUUACGUGCC are -2.26 ± 0.17 and -2.75 ± 0.38.
The corresponding values for CUUGAGCAAUAUUACGUGGU are -2.61 ± 0.15 and -2.74 ± 0.19.
On the same counts, the results for CUUGAGCAAUAUUACGUUGG are -2.66 ± 0.28 and -0.601 ± 0.18.
Take CUUGAGCAAUAUUACGUUUC: the “self-splicing fitness (ln)” value (30 °C) is -3.44 ± 0.27 and the “self-splicing fitness (ln)” value (37 °C) is -2.68 ± 0.36.
On to CUUUAGCAAUAUUACGACUU, for which, under “37 °C”, the “self-splicing fitness (ln)” value is -3.6 ± 0.46.
The same measure, in the same setting: the figure for CUUUAGCAAUAUUACGAGUU is -2.96 ± 0.4.
For CUUUAGCAAUAUUACGAUAU, the “self-splicing fitness (ln)” value by setting is: (30 °C) -3.93 ± 0.35; (37 °C) -3.25 ± 0.38.
Turning to CUUUAGCAAUAUUACGAUUC, the “self-splicing fitness (ln)” value reads like this: (30 °C) -3.16 ± 0.2; (37 °C) -2.6 ± 0.33.
In the case of CUUUAGCAAUAUUACGCAGC, under “37 °C”, the “self-splicing fitness (ln)” value is -2.27 ± 0.33.
For CUUUAGCAAUAUUACGCAUA, where the note is “30 °C”, the “self-splicing fitness (ln)” value was -3.68 ± 0.37.
Regarding CUUUAGCAAUAUUACGCCAA, for the setting “30 °C”, the “self-splicing fitness (ln)” value is -2.63 ± 0.37.
Consider CUUUAGCAAUAUUACGCCUC, for which the “self-splicing fitness (ln)” value (37 °C) was -1.99 ± 0.43.
Consider CUUUAGCAAUAUUACGCUUC, for which the “self-splicing fitness (ln)” value (37 °C) is -2.32 ± 0.38.
Regarding CUUUAGCAAUAUUACGGAAA, where the note is “37 °C”, the “self-splicing fitness (ln)” value was -2.01 ± 0.27.
In the case of CUUUAGCAAUAUUACGGACG, the “self-splicing fitness (ln)” value was -0.38 ± 0.07 (30 °C) and -0.273 ± 0.11 (37 °C).
On the same counts, the results for CUUUAGCAAUAUUACGGACU are -4.41 ± 0.31 and -3.71 ± 0.28.
With CUUUAGCAAUAUUACGGAGG, the “self-splicing fitness (ln)” value by setting is: (30 °C) -1.75 ± 0.15; (37 °C) -1.29 ± 0.19.
On to CUUUAGCAAUAUUACGGUGG, for which the “self-splicing fitness (ln)” value is, setting by setting: (30 °C) -1.96 ± 0.1; (37 °C) -0.665 ± 0.11.
The corresponding values for CUUUAGCAAUAUUACGUCAG are -1.03 ± 0.12 and -0.4 ± 0.13.
For CUUUAGCAAUAUUACGUGGA, the “self-splicing fitness (ln)” value is -3.4 ± 0.4 (30 °C) and -3.58 ± 0.31 (37 °C).
As for CUUUAGCAAUAUUACGUUCG, the “self-splicing fitness (ln)” value by setting is: (30 °C) -1.09 ± 0.13; (37 °C) 0.499 ± 0.17.
As for CUUUAGCAAUAUUACGUUGC, the “self-splicing fitness (ln)” value is -3.08 ± 0.28 (30 °C) and -3.55 ± 0.39 (37 °C).
On the same counts, the results for GAAAAGCAAUAUUACGAAAU are -1.74 ± 0.14 and -1.09 ± 0.16.
On the same counts, the results for GAAAAGCAAUAUUACGACCC are 0.23 ± 0.13 and -0.182 ± 0.18.
The corresponding values for GAAAAGCAAUAUUACGAUAU are -1.15 ± 0.071 and -0.354 ± 0.093.
As to GAAAAGCAAUAUUACGAUUA, the “self-splicing fitness (ln)” value was -0.531 ± 0.07 (30 °C) and -0.0202 ± 0.076 (37 °C).
The corresponding values for GAAAAGCAAUAUUACGAUUG are -2.27 ± 0.13 and -1.52 ± 0.14.
On the same counts, the results for GAAAAGCAAUAUUACGCGUA are -1.27 ± 0.11 and -1.15 ± 0.11.
The corresponding values for GAAAAGCAAUAUUACGCGUG are -1.42 ± 0.065 and -0.104 ± 0.078.
